Measured values from patent US20230374087A1, “METHOD TO IMPROVE PROTEIN QUALITY CONTROL” (The Johns Hopkins University, priority 2020, published 2023).
Numbering of substitutions follows the chain as printed. Names and notes keep the numbering of the source.

Legend:
[1] = tested on: CHIP pS20; experiment: Immunoblot for phospho-S20 CHIP in myocytes; format: cell-based, rat; conditions: cardiomyocytes; cGMP or SIL; DT3 1 μM
Method: (§1) Tissue and cultured cardiomyocytes were lysed in 1× lysis buffer (Cell Signaling Technology), protein concentration was measured by bicinchoninic acid assay (Pierce), and extracts were subjected to SDS-PAGE using Novex Tris-Glycine Gels (4-20% gradient gel, Life Technologies) or Mini-protean TGX Gels (4-20% gradient gel, Bio-Rad), transferred to nitrocellulose membranes, and probed with various primary antibodies (CHIP (#2080S), Hsc70 (#8444S), p-CHIP S20 (Custom antibody, AbMart Inc., Shanghai, China; Project: 25011-1), Myc (#2276S), GAPDH (#2118S), and α-tubulin (#3878S) (Cell Signaling) and ubiquitin antibody (#SAB4503053) from Sigma), and fluorescence-labeled secondary antibodies (Licor, #926-32211, 926-32210, 926-68023, or 926-68022). Gels were imaged (Odyssey, Licor) and band intensity quantified (Odyssey Software 3.1).
Human CHIP peptide fragments containing amino acid residues 13-30 were incubated with cGMP/PKG and assayed by MS. […] Phosphorylation was also observed at neighboring S24 and S26, but only when a S20A CHIP mutant was used (FIG. 2D). This indicates the primary target for PKG on CHIP is at S20. A monoclonal phospho-antibody generated against the S20 site in CHIP was tested in vitro with recombinant PKG1α and CHIP, verifying a consistent phospho-S20-CHIP signal. Use of a CHIP-S20A mutant CHIP confirmed specificity (FIG. 2E).

[2] = tested on: TTR-V122I; experiment: TTR abundance in hiPSC-CMs by western blot; format: cell-based, human; conditions: TTR-V122I 5 μM; for TTR accumulation: Ad-Chip 10 MOI; for TTR accumulation with Lamp2A knockdown: siLamp2A 100 μM
Method: Human induced pluripotent stem cell derived cardiomyocytes (hiPSC-CMs) were infected with Ad-Chip WT, SE, or SA (10 MOI), in the presence or absence of protein kinase G (PKG) stimulation via cGMP ([…]) and exposed to media containing TTR-V122I (5 μM) or control for 14 days. Cells were lysed and TTR abundance was determined by western blotting for TTR with a total protein stain used to show equal loading.
Human induced pluripotent stem cell derived cardiomyocytes (hiPSC-CMs) were infected with Ad-Chip WT, SE, or SA (10 MOI), in the presence or absence of Lamp2A knockdown via siRNA (siLamp2A, 100 μM) and exposed to media containing TTR-V122I (5 μM) or control for 14 days. Cells were lysed and TTR abundance was determined by western blotting for TTR with a total protein stain used to show equal loading. Knocking down Lamp2A removes the method of protein degradation known as chaperone mediated autophagy (CMA).

[3] = tested on: myocardial infarction; experiment: Myocardial infarction by coronary ligation in CHIP S20E knock-in mice
From the text: Male and female mice (aged ˜3-4 months) were subjected to transmural myocardial infarction by mid left anterior descending artery ligation under open thoracotomy (25). Controls underwent open chest surgery and LAD isolation without ligation. Data obtained 1-week after infarction included 2D echocardiography (Vevo2100, 20-MHz; Visualsonics) in conscious mice to measure LV volume and ejection fraction, with analysis blinded to study group.
Myocardium was fixed in 4% paraformaldehyde, paraffin embedded, and sectioned into 4 μm slices, and stained with Masson's Trichrome. Fibrosis was quantified by color-based pixel count and intensity in parallel sections of the ischemic and remote areas (Aperio Image Scope). Transmural infarct size was estimated as the arc angle subtended by dense scar in a mid-MI cross section divided by 360° and expressed as percent. Immunostaining for ubiquitin (Sigma) and CHIP (Cell Signaling) was performed using AlexaFluor 488 conjugated secondary antibodies following the manufacturer's protocol. Counterstain was performed using DAPI (Invitrogen) and Troponin-T (Thermo Scientific) antibodies. Image acquisition was performed on a Leica confocal microscope (TCS SPE II) at 40× magnification.

[4] = tested on: TTR-V122I; experiment: TTR abundance in cardiac fibroblasts by western blot; format: cell-based; conditions: neonatal rat cardiac fibroblasts, WT or SA 10 MOI, SE 0, 2.5, 5 or 10 MOI, TTR-V122I 5 μM, 14 days
Method: Fibroblasts were isolated from neonatal rat hearts and infected with Ad-Chip WT or SA (10 MOI) or SE (0, 2.5, 5, or 10 MOI) and exposed to media containing TTR-V122I (5 μM) for 14 days. Cells were lysed and TTR abundance was determined by western blotting for TTR with a total protein stain used to show equal loading.

[5] = molecular target: T1, Hsp70 (385-641) (Homo sapiens, UniProt P0DMV8); experiment: Isothermal titration calorimetry of CHIP-Hsp70 binding; conditions: ITC, 25° C.; for enthalpy (DH) / entropy (DS): triplicate, average ± SD
T1 construct: Hsp70 (385-641)
T1 sequence (P0DMV8 385-641): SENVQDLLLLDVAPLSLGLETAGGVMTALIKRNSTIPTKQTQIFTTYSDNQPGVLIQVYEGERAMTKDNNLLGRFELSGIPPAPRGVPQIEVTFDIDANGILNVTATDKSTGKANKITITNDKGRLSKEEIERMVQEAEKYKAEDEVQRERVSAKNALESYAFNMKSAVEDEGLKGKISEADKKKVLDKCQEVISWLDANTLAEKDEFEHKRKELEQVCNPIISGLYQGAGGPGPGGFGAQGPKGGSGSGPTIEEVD
Method: Isothermal titration calorimetry was carried out using a TA Instruments NanoITC equilibrated at 25° C. and utilizing a stir speed of 600 rpm. Experiments were conducted in triplicate and data represents the average±one standard deviation. Titrations utilized 350 μM WT or S20E CHIP titrated into 50 µM Hsp70 (385-641) as a series of twenty four 2 μL injections.

[6] = molecular target: T2, Hsc70 (Rattus norvegicus, UniProt P63018); experiment: CHIP-Hsc70 co-immunoprecipitation from myocyte lysate; format: cell-based; conditions: myocytes with or without SI, Hsc70 as bait
T2 construct: lysate from myocytes with or without exposure to SI were immunoprecipitated using Hsc70 as bait; endogenous in cells; host or cells: neonatal rat cardiomyocytes infected with adenovirus for Myc-tagged CHIP WT, S20E or S20A
Method: as §1
To test whether thermodynamic stabilization of CHIP-HSC70 due to S20 phosphorylation enhances protein binding, lysate from myocytes with or without exposure to SI were immunoprecipitated using Hsc70 as bait. […] Reduced CHIP-Hsc70 interaction was also observed in vivo following MI in hearts with PKG activation suppressed by mPDE5A/oe, whereas this was enhanced in WT hearts (FIG. 5C, FIG. 14B).

[7] = molecular target: T3, Hsp40-stimulated ATPase activity of Hsc70 (Homo sapiens, UniProt P11142); experiment: Chaperone refolding ATPase activity assay; format: biochemical; conditions: CHIP 0.5-6 μM, Hsc70 0.5 μM, Hsp40 0.25 μM
T3 construct: His-tag (N); made in house; host or cells: E. coli BL21(DE3)
T3 sequence (P11142 whole entry): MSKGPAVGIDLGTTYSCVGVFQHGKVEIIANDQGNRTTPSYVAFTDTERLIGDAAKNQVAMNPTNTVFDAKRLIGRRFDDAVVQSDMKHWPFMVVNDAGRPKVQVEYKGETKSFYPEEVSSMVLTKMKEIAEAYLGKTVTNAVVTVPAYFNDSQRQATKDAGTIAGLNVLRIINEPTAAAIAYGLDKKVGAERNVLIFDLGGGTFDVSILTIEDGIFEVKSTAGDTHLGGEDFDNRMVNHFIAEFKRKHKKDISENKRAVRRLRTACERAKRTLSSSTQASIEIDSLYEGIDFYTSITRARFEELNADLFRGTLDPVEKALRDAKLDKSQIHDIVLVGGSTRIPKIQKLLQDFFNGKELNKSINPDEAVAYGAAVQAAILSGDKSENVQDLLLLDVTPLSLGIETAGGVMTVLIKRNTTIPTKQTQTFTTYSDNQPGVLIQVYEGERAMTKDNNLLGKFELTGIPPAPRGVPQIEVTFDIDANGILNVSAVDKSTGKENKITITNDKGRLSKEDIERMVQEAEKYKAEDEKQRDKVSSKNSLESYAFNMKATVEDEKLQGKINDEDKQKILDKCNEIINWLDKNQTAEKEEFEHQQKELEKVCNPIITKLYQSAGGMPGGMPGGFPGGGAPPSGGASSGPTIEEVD
Method: Human HSP40 (DnaJB1), human CHIP and CHIP point mutants in pET30a with a C-terminal His-tag and hHsc70 (HSPA8) wild type with an N-terminal His-tag in pCOLA-Duet1 were expressed in BL21(DE3) and purified on Ni-NTA (Qiagen). Hsc70 and CHIP proteins were induced and expressed for 22 hours at 18° C. Hsp40 protein was induced and expressed for 5 hours at 25° C. Required stock solutions of proteins were prepared by diluting high concentrated stocks in protein storage buffer into protein storage buffer, 20 mM HEPES (pH7.4), 150 mM NaCl. Hsc70 and Hsp40 were used at a concentration of 0.5 μM and 0.25 μM, respectively, with a gradient of CHIP protein concentrations (0.5-6 μM). Hsp40-stimulated ATPase activity of Hsc70 was measured using fluorescent polarization with the […]® ADP2 FP Assay (BellBrook Labs, 3010-1K) on a Clariostar plate reader (BMG) in 384 well black, non-binding plates (Greiner, 784900). Optimized instrument settings were used: Excitation wavelength. 590 nm; Emission wavelength: 675 nm; Required value: 5%; Target mP: 20; Gain A: 1824; Gain B: 1854; Focal Height: 12.4 mm. Values of μM ADP formed in the reactions were interpolated from an ATP/ADP standard curve run in parallel.

[8] = tested on: neonatal rat cardiomyocytes (NRCMs)
Method: After overnight culture, subsets of NRCMs were infected with adenovirus (AdV) containing a FLAG-tagged PDE5, FLAG control, Myc-tagged CHIP WT or K31A (provided by Dr. Cam Patterson), S20E or S20A (Welgen Inc., Worcester, MA). Forty-eight hours after infection, cells were exposed to either simulated ischemia (SI) or normal conditions. SI involved incubating cells in DMEM containing deoxyglucose (20 mM), NaCl (125 mM), KCl (8 mM), KH2PO4 (1.2 mM), MgSO4 (1.25 mM), CaCl2) (1.2 mM), NaHCO3(6.25 mM), sodium lactate (5 mM), and HEPES (20 mM) with a pH of 6.6. Cells were then placed in an incubator chamber (Billups-Rothenberg) with 95% nitrogen, 4% carbon dioxide, and 1% oxygen. Normoxic controls were incubated in DMEM supplemented with 10% FBS in air composed of 95% carbon dioxide and 5% oxygen. RNA or protein was harvested after 48 hours of SI. Cells were also treated with sildenafil (1 μM) or vehicle, or small interference RNA (siRNA, 100 pM) specific for rat Stub1 (Qiagen, Cat. #: SI01532251) or scrambled control provided 24 hours after plating and transfected with Xfect (Takara) per manufacturer protocol.
Lactate dehydrogenase (LDH) leakage and (3-[4,5-dimethylthiazol-2-yl]-2,5-diphenyltetrazolium bromide) (MTT) were assessed in cultured cardiomyocytes and media after SI from the same culture dish. LDH was assayed by commercial assay (Roche) following manufacturer's protocol, read in 96 well microplates on a Spectramax M5 (Molecular Devices) at 490 nm absorbance. For MTT, cells were washed in phosphate-buffered saline, MTT (Sigma-Aldrich) working solution added to the culture dish, incubated at 37° C., solubilized with acidic isopropanol, transferred to a 96 well plate, and read at 570 nm with background subtraction at 650 nm on a Spectramax M5.

[9] = 14 days, no Lamp2A knockdown (Example 8)

Molecule: Nc1nc2c(ncn2[C@@H]2O[C@@H]3COP(=O)(O)O[C@H]3[C@H]2O)c(=O)[nH]1 [cGMP, cyclic guanosine monophosphate, reference compound]
- CHIP pS20 level [1]: CHIP pS20 increased
- TTR accumulation with PKG stimulation ([2]; cGMP 100 mM, 14 days): reduce TTR accumulation in Chip WT cells but not in Chip SA cells

B1: CHIP-S20E: CHIP with serine 20 to glutamic acid phospho-mimetic substitution; recombinant protein, adenovirus-expressed, or knock-in mouse (protein)
chain: MKGKEEKEGGARLGAGGGEPEKSPSAQELKEQGNRLFVGRKYPEAAACYGRVITRNPLVAVYYTNRALCYLKMQQHEQALADCRRALELDGQSVKAHFFLGQCQLEMESYDEAIANLQRAYSLAKEQRLNFGDDIPSALRIAKKKRWNSIEERRIHQESELHSYLSRLIAAERERELEECQRNHEGDEDDSHVRAQQACIEAKHDKYMADMDELFSQVDEKRKKRDIPDYLCGKISFELMREPCITPSGITYDRKDIEEHLQRVGHFDPVTRSPLTQEQLIPNLAMKEVIDAFISENGWVEDY
modifications: left off: small tags and cut ends
notes: CHIP with serine 20 to glutamic acid phospho-mimetic substitution; recombinant protein, adenovirus-expressed, or knock-in mouse
- accumulation of ubiquitinated proteins after MI ([3]; knock-in mice vs littermate controls, peri-infarct zone): less accumulation of ubiquitinated proteins
- mortality after MI ([3]; male homozygotes and heterozygotes vs littermate controls): lower mortality
- infarction size after MI ([3]; male knock-in mice vs littermate controls): reduced infarction size
- heart function after MI ([3]; male knock-in mice vs littermate controls, echocardiography): improved heart function
- TTR accumulation [4]: cleared by Chip SE expression in a dose-dependent manner
- increase of Hsp70 affinity as compared to CHIP-WT [5]: 59%
- more negative enthalpy as compared to CHIP-WT [5]: 1.34 kcal/mol
- enthalpy (DH) [5]: -7.67 ± 0.22 kcal/mol
- entropy (DS) [5]: 2.34e-06 ± 8.84e-07 kcal/mol
- Kd ([5]; read-out: increase of Hsp70 affinity as compared to CHIP-WT): ~500 nM
- TTR accumulation ([2]; 14 days (Example 7)): cleared
- TTR accumulation [2, 9]: cleared
- TTR accumulation with Lamp2A knockdown ([2]; 14 days): removed the protective effect
- co-precipitation of CHIP and Hsc70 [6]: confirmed

B2: CHIP-K31A: CHIP Lys 31 (K30 in humans) to Ala mutant that abolishes CHIP chaperone interactions (protein)
chain: B1 chain with E19S, K30A
modifications: left off: small tags and cut ends
- inhibition of Hsp70 ATPase activity [7]: an effect that was lost

B3: CHIP-WT: wild type carboxy terminus of Hsc70-interacting protein (CHIP), recombinant or adenovirus-expressed (protein)
chain: B1 chain with E19S
modifications: left off: small tags and cut ends
- TTR accumulation [4]: TTR accumulated
- enthalpy (DH) [5]: -6.31 ± 0.789 kcal/mol
- entropy (DS) [5]: 6.09e-06 ± 1.98e-06 kcal/mol
- inhibition of Hsp70 ATPase activity [7]: dose-dependently inhibited
- TTR accumulation ([2]; 14 days (Example 7)): TTR accumulated
- TTR accumulation [2, 9]: TTR accumulated
- TTR accumulation with Lamp2A knockdown ([2]; 14 days): exacerbated the accumulation of TTR
- co-precipitation of CHIP and Hsc70 [6]: confirmed

B4: S24E: S24E mutant CHIP overexpressed in neonatal myocytes (protein, UniProt Q9WUD1 1-304, looked up, variant S24E)
E3 ubiquitin-protein ligase …: MKGKEEKEGGARLGTGGGGSPDKEPSAQELKEQGNRLFVGRKYPEAAACYGRAITRNPLVAVYYTNRALCYLKMQQPEQALADCRRALELDGQSVKAHFFLGQCQLEMESYDEAIANLQRAYSLAKEQRLNFGDDIPSALRIAKKKRWNSIEERRIHQESELHSYLTRLIAAERERELEECQRNHEGHEDDGHIRAQQACIEAKHDKYMADMDELFSQVDEKRKKRDIPDYLCGKISFELMREPCITPSGITYDRKDIEEHLQRVGHFDPVTRSPLTQEQLIPNLAMKEVIDAFISENGWVEDY
- SI-induced cytotoxicity (LDH/MTT ratio) [8]: no significant impact on the cytotoxic response to SI or SI+SIL

B5: S24A: S24A mutant CHIP overexpressed in neonatal myocytes (protein, UniProt Q9WUD1 1-304, looked up, variant S24A)
E3 ubiquitin-protein ligase …: B4 E3 ubiquitin-protein ligase … with E24A
- SI-induced cytotoxicity (LDH/MTT ratio) [8]: no significant impact on the cytotoxic response to SI or SI+SIL

B6: S20E/S24E: S20E/S24E combination mutant CHIP (protein, UniProt Q9WUD1 1-304, looked up, variant S20E S24E)
E3 ubiquitin-protein ligase …: B4 E3 ubiquitin-protein ligase … with S20E
- SI-induced cytotoxicity (LDH/MTT ratio) [8]: very similar to those with S20 mutations alone

B7: S20A/S24A: S20A/S24A combination mutant CHIP (protein, UniProt Q9WUD1 1-304, looked up, variant S20A S24A)
E3 ubiquitin-protein ligase …: B4 E3 ubiquitin-protein ligase … with S20A, E24A
- SI-induced cytotoxicity (LDH/MTT ratio) [8]: very similar to those with S20 mutations alone
